The record followed here is publication PMC7501853.

The target in the experiment is nesprin-2-Giant, Q6ZWQ0-1. The experiment in a line: Duolink PLA (proximity ligation assay) in cells. The note with it: chain shown with the change; Bax/Bak DKO MEFs, transient transfection, in the presence of Q-VD-OPH; anti-Bax (6A7) Ab and anti-nesprin-2G Ab; n = 3; parent: est. 5.1; read off a plot; scale: fold of normalized Duolink dots per transfected cell relative to GFP.

B1: GFP-Bax, Q07812 63-65A (protein)
chain: MDGSGEQPRGGGPTSSEQIMKTGALLLQGFIQDRAGRMGGEAPELALDPVPQDASTKKLSECAAAIGDELDSNMELQRMIAAVDTDSPREVFFRVAADMFSDGNFNWGRVVALFYFASKLVLKALCTKVPELIRTIMGWTLDFLRERLLGWIQDQGGWDGLLSYFGTPTWQTVTIFVAGVLTASLTIWKKMG
With B1, the response stood at 8.8.
